doi:10.1101/2025.08.27.672506

What was measured:
[1] = target: wild-type H9/HK98 HA ectodomain with the Foldon tag (influenza A virus A/swine/Hong Kong/2106/98 (H9N2) | T4); assay: SEC
[2] = target: wild-type H1/Cal09 HA ectodomain with the Foldon trimerization tag (influenza A virus A/California/04/2009 (H1N1) | T4); assay: cryo-EM 2D classification
[3] = target: wild-type H1/Cal09 HA ectodomain with the Foldon trimerization tag (influenza A virus A/California/04/2009 (H1N1) | T4); assay: SEC
[4] = target: wild-type ectodomain of HA from /turkey/Ontario/6118/1968 (H8N4) (influenza A virus /turkey/Ontario/6118/1968 (H8N4)); assay: SEC
[5] = target: wild-type ectodomain of HA from A/gull/Maryland/704/1977 (H13N6) (influenza A virus A/gull/Maryland/704/1977 (H13N6)); assay: SEC
[6] = target: wild-type ectodomain of HA from A/swine/Hong Kong/2106/98 (H9N2) (influenza A virus A/swine/Hong Kong/2106/98 (H9N2)); assay: SEC
[7] = target: wild-type H1/Mal07 HA ectodomain with the Foldon tag (influenza A virus A/Malaysia/1706215/2007 (H1N1) | T4); assay: SEC

Substance: wild-type H9/HK98 HA ectodomain with the Foldon tag
- stoichiometry N [1]: 3

Substance: wild-type H1/Cal09 HA ectodomain with the Foldon trimerization tag
- stoichiometry N [2]: 3
- stoichiometry N [3]: 3

Substance: wild-type ectodomain of HA from /turkey/Ontario/6118/1968 (H8N4) (domain or fragment)
- stoichiometry N [4]: 3

Substance: wild-type ectodomain of HA from A/gull/Maryland/704/1977 (H13N6) (domain or fragment)
- stoichiometry N [5]: 3

Substance: wild-type ectodomain of HA from A/swine/Hong Kong/2106/98 (H9N2) (domain or fragment)
- stoichiometry N [6]: 3

Substance: wild-type H1/Mal07 HA ectodomain with the Foldon tag
- stoichiometry N [7]: 3
